Substitutions are numbered along the chain they refer to. Blank lines part the entries; values can stand above or below the binder they belong to.
How the values were obtained:
[1] = target: the molecule itself; experiment: SEC-MALS; HIRA(644–1017) purified in 500 mM NaCl
[2] = target: the molecule itself; experiment: AUC; sedimentation equilibrium of single purified proteins, 4 °C, 280 nm, 2–3 concentrations, multiple speeds; 20 mM Tris pH 8.0, 300 mM NaCl, 1 mM TCEP; Heteroanalysis and SEDPHAT; the constant of HIRA is of a monomer–trimer equilibrium model
[3] = target: T1, CABIN1 full length (FL), recombinant (UniProt Q9Y6J0 1-2220); experiment: SEC; Superose 6 10/300 GL fractionation; ~100 μM HIRA fragment incubated with ~20 μM CABIN1 FL in 500 μl, 30 min at 4 °C; 20 mM Tris pH 8.0, 300 mM NaCl, 1 mM TCEP; details: both partners purified
T1 construct: theoretical molecular weight printed as 246,352 Da; the discussion says 2200 amino-acid residues; Cloned into pFastBac HTA; No removal of the His tag is described; also called CABIN1 FL; FL His-CABIN1
T1 sequence (Q9Y6J0 whole entry, the tested form may be a part): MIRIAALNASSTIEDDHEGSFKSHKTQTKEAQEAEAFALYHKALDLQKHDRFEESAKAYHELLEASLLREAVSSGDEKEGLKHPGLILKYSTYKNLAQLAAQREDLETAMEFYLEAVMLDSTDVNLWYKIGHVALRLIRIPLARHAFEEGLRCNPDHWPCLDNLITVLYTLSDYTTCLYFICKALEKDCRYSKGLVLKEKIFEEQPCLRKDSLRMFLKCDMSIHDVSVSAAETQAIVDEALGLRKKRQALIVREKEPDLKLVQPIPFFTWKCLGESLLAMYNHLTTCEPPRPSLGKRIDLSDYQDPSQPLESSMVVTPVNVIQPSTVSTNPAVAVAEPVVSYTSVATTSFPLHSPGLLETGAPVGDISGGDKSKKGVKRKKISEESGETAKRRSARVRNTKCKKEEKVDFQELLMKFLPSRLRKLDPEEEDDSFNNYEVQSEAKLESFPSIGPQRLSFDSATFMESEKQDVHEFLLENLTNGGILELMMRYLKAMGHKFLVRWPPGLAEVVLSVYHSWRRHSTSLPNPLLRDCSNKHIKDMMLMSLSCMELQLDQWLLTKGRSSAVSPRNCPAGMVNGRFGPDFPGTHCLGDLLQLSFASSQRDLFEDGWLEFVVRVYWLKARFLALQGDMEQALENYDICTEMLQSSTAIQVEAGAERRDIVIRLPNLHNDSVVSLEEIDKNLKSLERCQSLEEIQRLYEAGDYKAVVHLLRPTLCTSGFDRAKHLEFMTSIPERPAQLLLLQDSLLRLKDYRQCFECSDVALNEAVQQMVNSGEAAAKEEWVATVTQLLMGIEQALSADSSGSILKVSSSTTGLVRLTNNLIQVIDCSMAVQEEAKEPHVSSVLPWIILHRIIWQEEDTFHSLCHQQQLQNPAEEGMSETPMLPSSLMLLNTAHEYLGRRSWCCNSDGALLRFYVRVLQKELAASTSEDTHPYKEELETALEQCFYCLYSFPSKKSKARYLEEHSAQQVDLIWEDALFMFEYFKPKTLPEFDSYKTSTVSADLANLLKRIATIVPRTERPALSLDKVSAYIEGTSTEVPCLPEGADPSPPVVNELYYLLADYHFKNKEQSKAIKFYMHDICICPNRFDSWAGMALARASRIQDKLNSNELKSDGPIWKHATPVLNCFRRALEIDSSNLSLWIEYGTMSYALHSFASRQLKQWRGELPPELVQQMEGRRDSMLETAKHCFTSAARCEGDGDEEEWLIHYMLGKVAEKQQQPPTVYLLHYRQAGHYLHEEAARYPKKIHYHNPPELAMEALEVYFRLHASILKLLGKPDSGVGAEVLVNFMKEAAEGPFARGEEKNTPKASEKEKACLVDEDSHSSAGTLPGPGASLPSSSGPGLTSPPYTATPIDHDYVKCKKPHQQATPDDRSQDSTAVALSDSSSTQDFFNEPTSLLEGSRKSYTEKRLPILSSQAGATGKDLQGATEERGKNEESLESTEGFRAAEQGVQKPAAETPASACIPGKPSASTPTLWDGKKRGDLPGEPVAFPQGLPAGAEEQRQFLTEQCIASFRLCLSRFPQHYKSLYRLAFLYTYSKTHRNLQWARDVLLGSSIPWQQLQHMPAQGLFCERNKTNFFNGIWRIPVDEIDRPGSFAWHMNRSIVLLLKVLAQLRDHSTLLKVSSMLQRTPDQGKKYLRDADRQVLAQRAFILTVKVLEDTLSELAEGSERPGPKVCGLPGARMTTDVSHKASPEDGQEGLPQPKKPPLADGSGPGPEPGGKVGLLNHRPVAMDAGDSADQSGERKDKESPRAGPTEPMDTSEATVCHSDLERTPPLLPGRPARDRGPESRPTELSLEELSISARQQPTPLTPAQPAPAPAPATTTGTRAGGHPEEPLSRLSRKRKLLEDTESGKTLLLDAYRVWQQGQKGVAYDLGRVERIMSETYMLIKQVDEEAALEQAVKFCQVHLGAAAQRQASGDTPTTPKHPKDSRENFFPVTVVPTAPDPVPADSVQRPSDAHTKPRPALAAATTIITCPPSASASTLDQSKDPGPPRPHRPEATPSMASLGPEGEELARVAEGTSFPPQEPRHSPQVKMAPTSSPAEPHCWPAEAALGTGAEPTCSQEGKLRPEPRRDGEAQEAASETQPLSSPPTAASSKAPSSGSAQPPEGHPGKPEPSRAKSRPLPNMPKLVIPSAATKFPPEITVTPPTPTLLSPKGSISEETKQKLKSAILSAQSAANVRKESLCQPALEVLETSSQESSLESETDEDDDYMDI

B1: HIRA(644–1017) (domain or fragment, human)
chain: GRPRKDSRLMPVSLSVQSPAALTAEKEAMCLSAPALALKLPIPSPQRAFTLQVSSDPSMYIEVENEVTVVGGVKLSRLKCNREGKEWETVLTSRILTAAGSCDVVCVACEKRMLSVFSTCGRRLLSPILLPSPISTLHCTGSYVMALTAAATLSVWDVHRQVVVVKEESLHSILAGSDMTVSQILLTQHGIPVMNLSDGKAYCFNPSLSTWNLVSDKQDSLAQCADFRSSLPSQDAMLCSGPLAIIQGRTSNSGRQAARLFSVPHVVQQETTLAYLENQVAAALTLQSSHEYRHWLLVYARYLVNEGFEYRLREICKDLLGPVHYSTGSQWESTVVGLRKRELLKELLPVIGQNLRFQRLFTECQEQLDILRDKLEGSS
notes: Cloned by NdeI/XhoI into pTXB1 (pYHD1); the forward primer has ATG before the first HIRA codon, so a start methionine may stand in front; A Se-Met labelled form was used for phasing only; Theoretical trimer weight printed as 125,815 Da; source: E. coli BL21(DE3), purified (chitin beads, on-column intein cleavage, Superdex 200); not shown: Intein (chitin beads), C-terminal, cleaved
- stoichiometry N [1]: 3

- binding result [3]: binds
B2: recombinant human HIRA(661–1017) (domain or fragment, UniProt P54198 661-1017, looked up)
chain: SPAALTAEKEAMCLSAPALALKLPIPSPQRAFTLQVSSDPSMYIEVENEVTVVGGVKLSRLKCNREGKEWETVLTSRILTAAGSCDVVCVACEKRMLSVFSTCGRRLLSPILLPSPISTLHCTGSYVMALTAAATLSVWDVHRQVVVVKEESLHSILAGSDMTVSQILLTQHGIPVMNLSDGKAYCFNPSLSTWNLVSDKQDSLAQCADFRSSLPSQDAMLCSGPLAIIQGRTSNSGRQAARLFSVPHVVQQETTLAYLENQVAAALTLQSSHEYRHWLLVYARYLVNEGFEYRLREICKDLLGPVHYSTGSQWESTVVGLRKRELLKELLPVIGQNLRFQRLFTECQEQLDILRDK
notes: Theoretical molecular weight of the homotrimer printed as 118,710 Da; also called HIRA trimer; not shown: GST, N-terminal, cleaved
- stoichiometry N [2]: 3

- binding result [3]: binds
B3: recombinant HIRA(661–1017 + FRL870-871-874AAA) (domain or fragment, human, UniProt P54198 661-1017, looked up)
chain: B2 chain with F210A, R211A, L214A
notes: not shown: GST, N-terminal, cleaved

- binding result [3]: binds
B4: recombinant HIRA(661–1017) Δ873–904 (domain or fragment, human, UniProt P54198 661-1017, looked up)
chain: SPAALTAEKEAMCLSAPALALKLPIPSPQRAFTLQVSSDPSMYIEVENEVTVVGGVKLSRLKCNREGKEWETVLTSRILTAAGSCDVVCVACEKRMLSVFSTCGRRLLSPILLPSPISTLHCTGSYVMALTAAATLSVWDVHRQVVVVKEESLHSILAGSDMTVSQILLTQHGIPVMNLSDGKAYCFNPSLSTWNLVSDKQDSLAQCADFRSSVPHVVQQETTLAYLENQVAAALTLQSSHEYRHWLLVYARYLVNEGFEYRLREICKDLLGPVHYSTGSQWESTVVGLRKRELLKELLPVIGQNLRFQRLFTECQEQLDILRDK
notes: also called loop deletion mutant; not shown: GST, N-terminal, cleaved
- stoichiometry N [2]: 3
